Data: US20220348659A1 (TWIST BIOSCIENCE, published 2022)
Substitutions are numbered along the chain they refer to.

B1: CD3-252-5 (VHH)
VHH: EVQLVESGGGLVQPGGSLRLSCAASGRISNINIMGWFRQAPGKEREFVAAISWNSGTTRYADSVKGRFTISADNSKNTAYLQMNSLKPEDTAVYYCASQGPGLYGSGSYLRYWGQGTLVTVSS
notes: also called CD3-252-005
B2: CD3-252-29 (VHH)
VHH: EVQLVESGGGLVQPGGSLRLSCAASGTTFRINVMGWFRQAPGKEREFVAAITSSGSSTLYADSVKGRFTISADNSKNTAYLQMNSLKPEDTAVYYCARGGGYHRLWGQGTLVTVSS
notes: also called CD3-252-029
B3: CD3-252-24 (VHH)
VHH: EVQLVESGGGLVQPGGSLRLSCAASGITFKRYVMGWFRQAPGKEREFVAAITNGGSTKYADSVKGRFTISADNSKNTAYLQMNSLKPEDTAVYYCARDLSAGPGKAVYWGQGTLVTVSS
notes: also called CD3-252-024
B4: CD3-252-10 (VHH)
VHH: EVQLVESGGGLVQPGGSLRLSCAASGRSLYDRAYVMGWFRQAPGKEREFVAAINRSGSALYADSVKGRFTISADNSKNTAYLQMNSLKPEDTAVYYCAAKAVTSRDHEWGQGTLVTVSS
notes: also called CD3-252-010
B5: CD3-252-22 (VHH)
VHH: EVQLVESGGGLVQPGGSLRLSCAASGNIFTRHIMGWFRQAPGKEREFVAAITNGGSTKYADSVKGRFTISADNSKNTAYLQMNSLKPEDTAVYYCARQDYYDSSGHIRYWGQGTLVTVSS
notes: also called CD3-252-022
B6: CD3-56-11 (antibody, V domains shown)
VH: EVQLLESGGGLVQPGGSLRLSCAASGFRFSTYAMNWVRQAPGKGLEWVSGISGSGGSKYHADSVKGRFTISRDNSKNTLYLQMNSLRAEDTAVYYCARDSLTTRGYYYYMDVWGQGTLVTVSS
VL: DIQMTQSQSSLSASVGDRVTITCRASQSIRTSLNWYQQKPGKAPKLLIYAASRLQSGVPSRFSGSGSGTDFTLTISSLQPEDFATYYCQQSYSTLYSFGGGTKVEIK
B7: CD3-56-05 (antibody, V domains shown)
VH: EVQLLESGGGLVQPGGSLRLSCAASGFTFSSYAMNWVRQAPGKGLEWVSAVSGSGGRTYYADSVKGRFTISRDNSKNTLYLQMNSLRAEDTAVYYCARERATTLDYWGQGTLVTVSS
VL: B6 VL with Q8P, S28T, R30Y, T31S, S32H, A50V, Y92F, L95S, Y96W, S97T
notes: the text speaks of CD3 epsilon IgGs from a Fab library on the DP47 framework; also called CD3-56-5; CD-3-56-5

Columns and labels:
[1] = target: CD3 on Jurkat cells; experiment: flow cytometry titration on Jurkat cells, MFI against [IgG] nM
[2] = target: CD3 on human CD8+ T cells; experiment: flow cytometry titration, MFI against [IgG] nM; cells not named on this panel, the value and the curve are those of the CD8+ T-Cell curve of FIG. 12F
[3] = target: CD3 on human CD8+ T cells; experiment: flow cytometry titration on CD8+ T cells, MFI against [IgG] nM
[4] = target: CD3 on human CD8+ T cells; experiment: flow cytometry titration, RL1-H MFI against [IgG] nM; cells not named on this panel, the points are those of the CD8+ T-Cell curves of FIGS. 12E-12G
[5] = target: cyno CD3 epsilon (cyno (cynomolgus monkey)) (UniProt Q95LI5); experiment: sensorgrams with fits, Response (RLU) against Time (s); instrument not named; species not printed on the panel: cyno by the order of the panels (11I-11K human, 11L-11N cyno, after the text's 67 nM and 107 nM)
[6] = target: T1, human CD3 epsilon (human, UniProt P07766 23-126, limits assumed); experiment: sensorgrams with fits, Response (RLU) against Time (s); instrument not named; species not printed on the panel: human by the order of the panels (11I-11K human, 11L-11N cyno, after the text's 67 nM and 107 nM)
T1 construct: Used as a soluble protein target in panning; the construct is not described; also called hCD3; hCD3 epsilon

[7] = target: T1, human CD3 epsilon; experiment: flow cytometry on Expi293 cells overexpressing hCD3e, antibody at 100 nM; bar = MFI ratio (OE/parent), 1 = parent cells
[8] = target: T2, cyno CD3 epsilon (cyno (cynomolgus monkey), UniProt Q95LI5 22-117, limits assumed); experiment: flow cytometry on Expi293 cells overexpressing cynoCD3e, antibody at 100 nM; bar = MFI ratio (OE/parent)
T2 construct: Used as a soluble protein target in panning; the construct is not described; also called cCD3; cCD3 epsilon
T2 sequence (looked up): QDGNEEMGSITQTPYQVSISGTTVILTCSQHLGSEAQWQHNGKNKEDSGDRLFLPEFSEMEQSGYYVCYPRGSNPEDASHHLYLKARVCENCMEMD

[9] = target: T2, cyno CD3 epsilon; experiment: sensorgrams with fits, Response (RLU) against Time (s); instrument not named; panel shaded grey; species not printed on the panel: cyno by the order of the panels (11I-11K human, 11L-11N cyno, after the text's 67 nM and 107 nM)
[10] = target: T1, human CD3 epsilon; experiment: method not stated; human CD3 epsilon

T1 sequence (P07766 23-126 limits assumed): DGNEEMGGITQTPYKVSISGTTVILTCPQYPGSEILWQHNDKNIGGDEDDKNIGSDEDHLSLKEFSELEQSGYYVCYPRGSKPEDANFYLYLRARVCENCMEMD
Chain of CD3 on human CD8+ T cells (chain, as listed by the source limits assumed): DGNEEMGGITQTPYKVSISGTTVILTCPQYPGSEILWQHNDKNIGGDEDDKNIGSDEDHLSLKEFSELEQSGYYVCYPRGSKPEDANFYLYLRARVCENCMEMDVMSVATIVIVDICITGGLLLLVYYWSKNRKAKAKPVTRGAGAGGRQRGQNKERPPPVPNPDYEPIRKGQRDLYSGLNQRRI

Molecule	binding result [7]	binding result [8]	other results
R&D MAB100 (antibody)			EC50 [1]: 0.537 nM; EC50 [2]: 3.05 nM; EC50 [3]: 3.05 nM; EC50 (read off the curve) [4]: 3 nM
muSP34 (antibody)			Kd [5]: 38 nM; Kd [6]: < 0.0019 nM
B1	binds	no binding (tested: 100 nM)	
B2	binds	no binding (tested: 100 nM)	
B3	binds	no binding (tested: 100 nM)	
B4	binds	no binding (tested: 100 nM)	
B5	binds		
B6			Kd [9]: 162000 nM; Kd [6]: 130 nM
B7			Kd [10]: 67 nM
